# From article doi:10.1101/2024.05.23.595439
# T1: SSF (full-length) (Escherichia coli F plasmid, UniProt P18310 1-179)
# T1 sequence: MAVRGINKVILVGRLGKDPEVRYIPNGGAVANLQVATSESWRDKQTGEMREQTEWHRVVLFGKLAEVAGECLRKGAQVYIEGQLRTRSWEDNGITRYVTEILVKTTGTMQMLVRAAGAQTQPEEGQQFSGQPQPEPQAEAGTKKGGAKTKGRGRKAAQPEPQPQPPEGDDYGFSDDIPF
# Key:
# SSF (full-length) = molecular target: T1, SSF (full-length); test: MST
# SSB (full-length) = SSB (full-length) (Escherichia coli, UniProt P0AGE0 1-178); test: MST
# SSB (full-length), sequence (P0AGE0 whole entry): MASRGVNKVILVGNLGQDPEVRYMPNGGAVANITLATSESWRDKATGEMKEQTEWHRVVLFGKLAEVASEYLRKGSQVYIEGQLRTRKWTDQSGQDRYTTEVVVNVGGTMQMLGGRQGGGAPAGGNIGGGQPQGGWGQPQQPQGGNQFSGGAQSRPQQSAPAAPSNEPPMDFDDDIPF
binder,measurement,setting,value
GGCAAATTACTCCTGTAATTTGCC (structured_DNA) [hairpin dsDNA],Kd,SSF (full-length),45.3 µM
same,binding result,SSB (full-length),no binding
